Assay [1] deals with Fluorescent dansylated CaM (D-CaM, 5-(dimethylamino)naphtalene-1-sulfonyl-calmodulin) (rat) (UniProt P0DP29). Description: other fluorescence titration; increasing GST-fusion protein added to D-CaM (12.5 nM) in the cuvette; dansyl fluorescence enhancement, Hill fit, apparent affinity (EC50); 25 °C; Fluorescence buffer with 9.63 mM Ca2+ added (3.9 µM free Ca2+).
Assay [2] concerns the target dansylated calmodulin (D-CaM, 5-(dimethylamino)naphtalene-1-sulfonyl-calmodulin) (rat) (UniProt P0DP29). Description: other fluorescence titration; D-CaM 12.5 nM in the cuvette, increasing concentrations of GST-fusion protein; no Ca2+ (EGTA 10 mM); Tris-HCl 25 mM pH 7.4, KCl 120 mM, NaCl 5 mM, MgCl2 2 mM; 25 °C; apparent affinity (EC50 of a Hill fit to the fluorescence enhancement).

In assay [3] the target is Fluorescent dansylated CaM (D-CaM, 5-(dimethylamino)naphtalene-1-sulfonyl-calmodulin) (rat) (UniProt P0DP29). Nature of the assay: other fluorescence titration; increasing GST-fusion protein added to D-CaM (12.5 nM) in the cuvette; dansyl fluorescence enhancement, Hill fit, apparent affinity (EC50); 25 °C; Tris-HCl 25 mM pH 7.4, KCl 120 mM, NaCl 5 mM, MgCl2 2 mM, EGTA 10 mM; without Ca2+.

In assay [4] the target is dansylated calmodulin (D-CaM, 5-(dimethylamino)naphtalene-1-sulfonyl-calmodulin) (rat) (UniProt P0DP29). Nature of the assay: dansyl-CaM fluorescence time course; D-CaM 12.5 nM in a stirred cuvette, emission at 500 nm against time; wt protein (400 nM) added, or one mutant (400 nM) and two minutes later the other mutant (400 nM); also 50 and 100 nM; Fluorescence buffer with or without Ca2+; 25 °C and 37 °C.

Assay [5] shares this target. Description: other fluorescence titration; as a2 but with an excess of free Ca2+ (3.9 µM; 9.63 mM Ca2+ added to the Fluorescence buffer); apparent affinity (EC50).
For assay [6] the target is unchanged. Description: other fluorescence titration; D-CaM 12.5 nM in the cuvette, increasing concentrations of GST-fusion protein; no Ca2+ (EGTA 10 mM); Tris-HCl 25 mM pH 7.4, KCl 120 mM, NaCl 5 mM, MgCl2 2 mM; 25 °C; apparent affinity (EC50 of a Hill fit to the fluorescence enhancement). The source holds these as a separate data set.
The target of assay [7] is mTurquoise2-Kv7.2-ABCD (residues 310-653) (human). Nature of the assay: FRET or BRET; equimolar mixtures (500 nM or 2.5 µM each) of purified CFP-ABCD/CaM (donor) and YFP-ABCD/CaM (acceptor) complexes; FRET index followed over time; KCl 120 mM, Hepes 50 mM, NaCl 5 mM, EGTA 5 mM, with or without Ca2+. On the technique in general: In BRET a luciferase serves as donor, and the signal depends on an acceptor being close.

Usually EC50 stands for the concentration that produces a half-maximal response. Consider “ABCD# (equimolar mixture of GST-ABCD-S511D and GST-ABCD-A343D of Kv7.2)”, for which the 50% effective concentration (EC50) in assay [1] stood at 0.0785 µM.

On to “ABCD#-L609R (equal mixture of helix A and helix B mutants of ABCD carrying L609R)”, for which the EC50 in assay [2] worked out at 0.12 µM.

With “ABCD#-L609R (equimolar mixture of GST-ABCD-S511D-L609R and GST-ABCD-A343D-L609R of Kv7.2)”, the concentration giving a half-maximal response (EC50) in assay [1] turned out to be 0.173 µM; in assay [3] it was 0.119 µM.

With “ABCD# (equimolar mixture of ABCD-A343D and ABCD-S511D)”, the EC50 in assay [2] turned out to be 0.0455 µM. In addition, in assay [4], the half-time in the trans-binding assay (400 nM) was 6.5 min; the time to reach the half-maximal D-CaM fluorescence signal (400 nM, 25 °C) amounted to 12 min; the time to reach the half-maximal D-CaM fluorescence signal (400 nM, 37 °C) worked out at 9.2 min.

With “GST-Kv7.2 ABCD (helices ABCD fused to GST) (domain or fragment)”, the EC50 amounted to 0.0151 µM in assay [5], 0.0092 µM in assay [6] and 0.0091 µM in assay [2].

For “mCitrine-Kv7.2-ABCD (residues 310-653) (domain or fragment)”, in assay [7], the time to reach half maximal FRET (2.5 µM donor and acceptor) was found to be 6.9 min; the time to reach the half maximal FRET index (500 nM mixture) came out at 12.2 min.

Source of the values: paper PMC5647379.
